Columns and labels:
[1] = biological target: T1, low-specificity Escherichia coli L-threonine aldolase (eTA) (Escherichia coli, UniProt P75823); test: X-ray crystal structure, […] Å, co-crystallised with L-serine; type: binding; settings: covalent, external aldimine with PLP; partial occupancy
[2] = biological target: T1, low-specificity Escherichia coli L-threonine aldolase (eTA); test: X-ray crystal structure, […] Å; type: binding; settings: covalent, internal aldimine with Lys197; 1:1 per subunit
purified protein [3] = substrate: C[C@@H](O)[C@H](N)C(=O)O; test: purified protein; type: biochemical, Escherichia coli; settings: 20 mM potassium phosphate, pH 7.0, 30 °C, retro-aldol cleavage
purified protein [4] = substrate: C[C@H](O)[C@H](N)C(=O)O; test: purified protein; type: biochemical, Escherichia coli; settings: 20 mM potassium phosphate, pH 7.0, 30 °C, retro-aldol cleavage

Molecule: NCC(=O)O [glycine]
- X-ray crystal structure, 2.2 Å, co-crystallised with L-serine [1]: external aldimine with glycine (in which the C4’ is bound to the amino group

Molecule: Cc1ncc(COP(=O)(O)O)c(C=O)c1O [PLP]
- X-ray crystal structure, 2.2 Å [2]: PLP bound at their interface, forming a Schiff base (internal aldimine) with the conserved Lys197

B1: low-specificity Escherichia coli L-threonine aldolase (eTA) (Escherichia coli K-12) (protein)
chain: MIDLRSDTVTRPSRAMLEAMMAAPVGDDVYGDDPTVNALQDYAAELSGKEAAIFLPTGTQANLVALLSHCERGEEYIVGQAAHNYLFEAGGAAVLGSIQPQPIDAAADGTLPLDKVAMKIKPDDIHFARTKLLSLENTHNGKVLPREYLKEAWEFTRERNLALHVDGARIFNAVVAYGCELKEITQYCDSFTICLSKGLGTPVGSLLVGNRDYIKRAIRWRKMTGGGMRQSGILAAAGIYALKNNVARLQEDHDNAAWMAEQLREAGADVMRQDTNMLFVRVGEENAAALGEYMKARNVLINASPIVRLVTHLDVSREQLAEVAAHWRAFLAR
- Km (purified protein [3]): 19400 µM
- kcat (purified protein [3]): 1.87 s⁻¹
- kcat/Km (purified protein [3]): 96.7 M⁻¹ s⁻¹
- Km (purified protein [4]): 240 µM
- kcat (purified protein [4]): 3.55 s⁻¹
- kcat/Km (purified protein [4]): 14800 M⁻¹ s⁻¹

B2: low-specificity Escherichia coli L-threonine aldolase (eTA) (Escherichia coli K-12; K222A) (protein)
chain: MIDLRSDTVTRPSRAMLEAMMAAPVGDDVYGDDPTVNALQDYAAELSGKEAAIFLPTGTQANLVALLSHCERGEEYIVGQAAHNYLFEAGGAAVLGSIQPQPIDAAADGTLPLDKVAMKIKPDDIHFARTKLLSLENTHNGKVLPREYLKEAWEFTRERNLALHVDGARIFNAVVAYGCELKEITQYCDSFTICLSKGLGTPVGSLLVGNRDYIKRAIRWRAMTGGGMRQSGILAAAGIYALKNNVARLQEDHDNAAWMAEQLREAGADVMRQDTNMLFVRVGEENAAALGEYMKARNVLINASPIVRLVTHLDVSREQLAEVAAHWRAFLAR
- Km (purified protein [4]): 1200 µM
- kcat (purified protein [4]): 1.33 s⁻¹
- kcat/Km (purified protein [4]): 1120 M⁻¹ s⁻¹

B3: low-specificity Escherichia coli L-threonine aldolase (eTA) (Escherichia coli K-12; F87A) (protein)
chain: MIDLRSDTVTRPSRAMLEAMMAAPVGDDVYGDDPTVNALQDYAAELSGKEAAIFLPTGTQANLVALLSHCERGEEYIVGQAAHNYLAEAGGAAVLGSIQPQPIDAAADGTLPLDKVAMKIKPDDIHFARTKLLSLENTHNGKVLPREYLKEAWEFTRERNLALHVDGARIFNAVVAYGCELKEITQYCDSFTICLSKGLGTPVGSLLVGNRDYIKRAIRWRKMTGGGMRQSGILAAAGIYALKNNVARLQEDHDNAAWMAEQLREAGADVMRQDTNMLFVRVGEENAAALGEYMKARNVLINASPIVRLVTHLDVSREQLAEVAAHWRAFLAR
- Km (purified protein [4]): 310 µM
- kcat (purified protein [4]): 2.67 s⁻¹
- kcat/Km (purified protein [4]): 8600 M⁻¹ s⁻¹

B4: low-specificity Escherichia coli L-threonine aldolase (eTA) (Escherichia coli K-12; F87D) (protein)
chain: MIDLRSDTVTRPSRAMLEAMMAAPVGDDVYGDDPTVNALQDYAAELSGKEAAIFLPTGTQANLVALLSHCERGEEYIVGQAAHNYLDEAGGAAVLGSIQPQPIDAAADGTLPLDKVAMKIKPDDIHFARTKLLSLENTHNGKVLPREYLKEAWEFTRERNLALHVDGARIFNAVVAYGCELKEITQYCDSFTICLSKGLGTPVGSLLVGNRDYIKRAIRWRKMTGGGMRQSGILAAAGIYALKNNVARLQEDHDNAAWMAEQLREAGADVMRQDTNMLFVRVGEENAAALGEYMKARNVLINASPIVRLVTHLDVSREQLAEVAAHWRAFLAR
- Km (purified protein [4]): 410 µM
- kcat (purified protein [4]): 1.95 s⁻¹
- kcat/Km (purified protein [4]): 4750 M⁻¹ s⁻¹

B5: low-specificity Escherichia coli L-threonine aldolase (eTA) (Escherichia coli K-12; H126N) (protein)
chain: MIDLRSDTVTRPSRAMLEAMMAAPVGDDVYGDDPTVNALQDYAAELSGKEAAIFLPTGTQANLVALLSHCERGEEYIVGQAAHNYLFEAGGAAVLGSIQPQPIDAAADGTLPLDKVAMKIKPDDINFARTKLLSLENTHNGKVLPREYLKEAWEFTRERNLALHVDGARIFNAVVAYGCELKEITQYCDSFTICLSKGLGTPVGSLLVGNRDYIKRAIRWRKMTGGGMRQSGILAAAGIYALKNNVARLQEDHDNAAWMAEQLREAGADVMRQDTNMLFVRVGEENAAALGEYMKARNVLINASPIVRLVTHLDVSREQLAEVAAHWRAFLAR
- Km (purified protein [4]): 960 µM
- kcat (purified protein [4]): 7.82 s⁻¹
- kcat/Km (purified protein [4]): 8130 M⁻¹ s⁻¹

B6: low-specificity Escherichia coli L-threonine aldolase (eTA) (Escherichia coli K-12; H126F) (protein)
chain: MIDLRSDTVTRPSRAMLEAMMAAPVGDDVYGDDPTVNALQDYAAELSGKEAAIFLPTGTQANLVALLSHCERGEEYIVGQAAHNYLFEAGGAAVLGSIQPQPIDAAADGTLPLDKVAMKIKPDDIFFARTKLLSLENTHNGKVLPREYLKEAWEFTRERNLALHVDGARIFNAVVAYGCELKEITQYCDSFTICLSKGLGTPVGSLLVGNRDYIKRAIRWRKMTGGGMRQSGILAAAGIYALKNNVARLQEDHDNAAWMAEQLREAGADVMRQDTNMLFVRVGEENAAALGEYMKARNVLINASPIVRLVTHLDVSREQLAEVAAHWRAFLAR
- Km (purified protein [4]): 200 µM
- kcat (purified protein [4]): 9.02 s⁻¹
- kcat/Km (purified protein [4]): 45100 M⁻¹ s⁻¹

Source: article PMC4366684 (The FEBS journal, 2013)
